In PMC5737521 (Nucleic Acids Research, 2017):
Each block holds one binder with its values, some of them ahead of it.

What was measured:
[1] = biological target: T1, H. sapiens JunD bZIP domain (residues Q266-V332) (human, UniProt P17535 266-332); test: crystal structure
T1 sequence: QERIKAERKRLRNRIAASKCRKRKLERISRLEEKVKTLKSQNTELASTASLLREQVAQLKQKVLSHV

crystal structure = biological target: the molecule itself; test: crystal structure
[2] = biological target: the molecule itself; test: fluorescence polarisation
[3] = biological target: T2, FosB bZIP domain;JunD bZIP domain (Homo sapiens (cloned from identical Mus …, UniProt P53539;P17535 153-219;266-332, |)); test: fluorescence polarization
T2 sequence 1: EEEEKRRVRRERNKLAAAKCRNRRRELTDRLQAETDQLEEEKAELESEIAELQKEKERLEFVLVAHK
T2 sequence 2: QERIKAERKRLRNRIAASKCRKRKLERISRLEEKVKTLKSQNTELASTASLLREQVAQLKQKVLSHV

binding result [1]: binds
B1: Homo sapiens FosB bZIP domain (residues E153-K219) (domain or fragment)
chain: EEEEKRRVRRERNKLAAAKCRNRRRELTDRLQAETDQLEEEKAELESEIAELQKEKERLEFVLVAHK
binding result (crystal structure): binds

B2: reduced FosB/JunD bZIP heterodimer (FJ^red) (complex)
chain 1: EEEEKRRVRRERNKLAAAKCRNRRRELTDRLQAETDQLEEEKAELESEIAELQKEKERLEFVLVAHK
chain 2: QERIKAERKRLRNRIAASKCRKRKLERISRLEEKVKTLKSQNTELASTASLLREQVAQLKQKVLSHV
binding result [2]: binds

B3: oxidized form of FosB/JunD bZIP heterodimer (FJ^oxi) (complex)
chain 1: EEEEKRRVRRERNKLAAAKCRNRRRELTDRLQAETDQLEEEKAELESEIAELQKEKERLEFVLVAHK
chain 2: QERIKAERKRLRNRIAASKCRKRKLERISRLEEKVKTLKSQNTELASTASLLREQVAQLKQKVLSHV
binding result (crystal structure): binds

B4: TAMRA AP-1 19-mer (cyclin-dependent kinase 5 promoter) (dsDNA)
DNA 1: CGTCGGTGACTCAAAACAC
DNA 2: GTGTTTTGAGTCACCGACG
binding result [3]: binds
